These are literature values, as cited in patent US20160346224A1, “COMPOSITIONS AND METHODS FOR REDUCING VISUAL LOSS” (Edge Therapeutics, Inc., priority 2015, published 2016).

No end group written: not given here.

Series [1] deals with T1, R-type calcium current in the neurohypophysial nerve endings (Rattus norvegicus, UniProt Q07652).
T1 construct: R-type calcium current in the neurohypophysial nerve endings at 40 nM concentration; host or cells: neurohypophysial nerve endings (native tissue preparation)
The following applies: at 40 nM concentration.

Series [2] relates to K+ and Na+ currents, and L, P/Q and T-type calcium currents.
In a further series the target is N-type calcium current (Homo sapiens, UniProt Q00975). Particulars: at 300 nM to 500 nM.
The test system of series [3] is R-type current in preparations of the neuronal cell body, retinal ganglion cells and hippocampal pyramidal cells.

Sequence of N-type calcium current (Q00975 whole entry): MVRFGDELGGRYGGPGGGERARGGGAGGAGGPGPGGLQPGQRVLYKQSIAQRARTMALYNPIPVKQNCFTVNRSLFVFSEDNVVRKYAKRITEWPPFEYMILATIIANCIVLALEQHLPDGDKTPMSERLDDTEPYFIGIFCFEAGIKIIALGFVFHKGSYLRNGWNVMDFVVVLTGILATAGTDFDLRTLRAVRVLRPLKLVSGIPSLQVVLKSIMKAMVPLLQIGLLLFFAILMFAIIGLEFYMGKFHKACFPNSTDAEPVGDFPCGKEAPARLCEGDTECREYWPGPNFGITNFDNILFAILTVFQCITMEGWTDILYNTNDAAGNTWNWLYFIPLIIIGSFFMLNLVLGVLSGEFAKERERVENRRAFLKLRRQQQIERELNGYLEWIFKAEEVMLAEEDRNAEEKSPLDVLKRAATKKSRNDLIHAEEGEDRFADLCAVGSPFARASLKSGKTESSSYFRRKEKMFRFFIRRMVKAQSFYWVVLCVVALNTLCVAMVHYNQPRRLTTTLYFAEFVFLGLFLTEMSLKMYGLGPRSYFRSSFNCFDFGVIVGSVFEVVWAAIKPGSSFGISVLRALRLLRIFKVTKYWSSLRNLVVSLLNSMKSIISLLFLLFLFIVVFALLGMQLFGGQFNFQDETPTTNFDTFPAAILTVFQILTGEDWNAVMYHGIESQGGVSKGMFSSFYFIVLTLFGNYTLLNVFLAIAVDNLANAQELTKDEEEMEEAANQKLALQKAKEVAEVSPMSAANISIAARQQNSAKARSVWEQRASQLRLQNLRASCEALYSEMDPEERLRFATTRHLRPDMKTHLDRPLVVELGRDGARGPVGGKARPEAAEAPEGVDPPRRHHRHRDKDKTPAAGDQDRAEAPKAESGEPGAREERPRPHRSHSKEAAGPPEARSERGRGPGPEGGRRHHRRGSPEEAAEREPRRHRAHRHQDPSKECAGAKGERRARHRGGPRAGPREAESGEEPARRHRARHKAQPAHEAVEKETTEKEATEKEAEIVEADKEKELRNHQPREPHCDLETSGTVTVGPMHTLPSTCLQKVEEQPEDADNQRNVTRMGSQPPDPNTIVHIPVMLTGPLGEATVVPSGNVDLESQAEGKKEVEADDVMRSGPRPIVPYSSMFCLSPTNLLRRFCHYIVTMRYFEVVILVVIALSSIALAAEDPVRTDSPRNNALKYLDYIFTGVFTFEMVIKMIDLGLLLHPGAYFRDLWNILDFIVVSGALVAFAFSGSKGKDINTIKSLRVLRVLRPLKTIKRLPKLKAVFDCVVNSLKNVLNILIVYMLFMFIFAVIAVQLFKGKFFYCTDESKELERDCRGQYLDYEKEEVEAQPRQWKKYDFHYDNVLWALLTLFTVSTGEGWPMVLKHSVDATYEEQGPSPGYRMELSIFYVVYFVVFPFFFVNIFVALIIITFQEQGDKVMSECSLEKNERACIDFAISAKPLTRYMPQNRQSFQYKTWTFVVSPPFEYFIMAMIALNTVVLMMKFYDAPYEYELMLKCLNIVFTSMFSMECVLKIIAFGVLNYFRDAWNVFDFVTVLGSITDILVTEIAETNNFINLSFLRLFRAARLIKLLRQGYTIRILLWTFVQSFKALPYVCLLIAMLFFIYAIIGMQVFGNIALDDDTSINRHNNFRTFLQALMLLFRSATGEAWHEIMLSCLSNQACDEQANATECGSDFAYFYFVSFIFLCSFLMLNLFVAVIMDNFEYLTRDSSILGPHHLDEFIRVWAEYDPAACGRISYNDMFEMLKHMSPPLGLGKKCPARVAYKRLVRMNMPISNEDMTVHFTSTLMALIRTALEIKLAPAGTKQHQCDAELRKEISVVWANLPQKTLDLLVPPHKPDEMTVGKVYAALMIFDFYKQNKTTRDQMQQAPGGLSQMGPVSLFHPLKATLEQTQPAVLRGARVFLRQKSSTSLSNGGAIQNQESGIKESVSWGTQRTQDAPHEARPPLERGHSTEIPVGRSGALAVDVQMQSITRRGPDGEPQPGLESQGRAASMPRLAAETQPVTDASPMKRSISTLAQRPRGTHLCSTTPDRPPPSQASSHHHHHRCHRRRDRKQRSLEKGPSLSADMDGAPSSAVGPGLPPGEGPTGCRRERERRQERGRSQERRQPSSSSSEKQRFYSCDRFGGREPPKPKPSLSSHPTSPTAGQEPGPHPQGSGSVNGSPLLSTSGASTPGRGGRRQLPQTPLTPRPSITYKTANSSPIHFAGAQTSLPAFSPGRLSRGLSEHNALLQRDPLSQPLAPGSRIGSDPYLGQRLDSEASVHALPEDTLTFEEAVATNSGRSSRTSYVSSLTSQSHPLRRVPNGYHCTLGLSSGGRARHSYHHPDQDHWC
T1 sequence (Q07652 whole entry): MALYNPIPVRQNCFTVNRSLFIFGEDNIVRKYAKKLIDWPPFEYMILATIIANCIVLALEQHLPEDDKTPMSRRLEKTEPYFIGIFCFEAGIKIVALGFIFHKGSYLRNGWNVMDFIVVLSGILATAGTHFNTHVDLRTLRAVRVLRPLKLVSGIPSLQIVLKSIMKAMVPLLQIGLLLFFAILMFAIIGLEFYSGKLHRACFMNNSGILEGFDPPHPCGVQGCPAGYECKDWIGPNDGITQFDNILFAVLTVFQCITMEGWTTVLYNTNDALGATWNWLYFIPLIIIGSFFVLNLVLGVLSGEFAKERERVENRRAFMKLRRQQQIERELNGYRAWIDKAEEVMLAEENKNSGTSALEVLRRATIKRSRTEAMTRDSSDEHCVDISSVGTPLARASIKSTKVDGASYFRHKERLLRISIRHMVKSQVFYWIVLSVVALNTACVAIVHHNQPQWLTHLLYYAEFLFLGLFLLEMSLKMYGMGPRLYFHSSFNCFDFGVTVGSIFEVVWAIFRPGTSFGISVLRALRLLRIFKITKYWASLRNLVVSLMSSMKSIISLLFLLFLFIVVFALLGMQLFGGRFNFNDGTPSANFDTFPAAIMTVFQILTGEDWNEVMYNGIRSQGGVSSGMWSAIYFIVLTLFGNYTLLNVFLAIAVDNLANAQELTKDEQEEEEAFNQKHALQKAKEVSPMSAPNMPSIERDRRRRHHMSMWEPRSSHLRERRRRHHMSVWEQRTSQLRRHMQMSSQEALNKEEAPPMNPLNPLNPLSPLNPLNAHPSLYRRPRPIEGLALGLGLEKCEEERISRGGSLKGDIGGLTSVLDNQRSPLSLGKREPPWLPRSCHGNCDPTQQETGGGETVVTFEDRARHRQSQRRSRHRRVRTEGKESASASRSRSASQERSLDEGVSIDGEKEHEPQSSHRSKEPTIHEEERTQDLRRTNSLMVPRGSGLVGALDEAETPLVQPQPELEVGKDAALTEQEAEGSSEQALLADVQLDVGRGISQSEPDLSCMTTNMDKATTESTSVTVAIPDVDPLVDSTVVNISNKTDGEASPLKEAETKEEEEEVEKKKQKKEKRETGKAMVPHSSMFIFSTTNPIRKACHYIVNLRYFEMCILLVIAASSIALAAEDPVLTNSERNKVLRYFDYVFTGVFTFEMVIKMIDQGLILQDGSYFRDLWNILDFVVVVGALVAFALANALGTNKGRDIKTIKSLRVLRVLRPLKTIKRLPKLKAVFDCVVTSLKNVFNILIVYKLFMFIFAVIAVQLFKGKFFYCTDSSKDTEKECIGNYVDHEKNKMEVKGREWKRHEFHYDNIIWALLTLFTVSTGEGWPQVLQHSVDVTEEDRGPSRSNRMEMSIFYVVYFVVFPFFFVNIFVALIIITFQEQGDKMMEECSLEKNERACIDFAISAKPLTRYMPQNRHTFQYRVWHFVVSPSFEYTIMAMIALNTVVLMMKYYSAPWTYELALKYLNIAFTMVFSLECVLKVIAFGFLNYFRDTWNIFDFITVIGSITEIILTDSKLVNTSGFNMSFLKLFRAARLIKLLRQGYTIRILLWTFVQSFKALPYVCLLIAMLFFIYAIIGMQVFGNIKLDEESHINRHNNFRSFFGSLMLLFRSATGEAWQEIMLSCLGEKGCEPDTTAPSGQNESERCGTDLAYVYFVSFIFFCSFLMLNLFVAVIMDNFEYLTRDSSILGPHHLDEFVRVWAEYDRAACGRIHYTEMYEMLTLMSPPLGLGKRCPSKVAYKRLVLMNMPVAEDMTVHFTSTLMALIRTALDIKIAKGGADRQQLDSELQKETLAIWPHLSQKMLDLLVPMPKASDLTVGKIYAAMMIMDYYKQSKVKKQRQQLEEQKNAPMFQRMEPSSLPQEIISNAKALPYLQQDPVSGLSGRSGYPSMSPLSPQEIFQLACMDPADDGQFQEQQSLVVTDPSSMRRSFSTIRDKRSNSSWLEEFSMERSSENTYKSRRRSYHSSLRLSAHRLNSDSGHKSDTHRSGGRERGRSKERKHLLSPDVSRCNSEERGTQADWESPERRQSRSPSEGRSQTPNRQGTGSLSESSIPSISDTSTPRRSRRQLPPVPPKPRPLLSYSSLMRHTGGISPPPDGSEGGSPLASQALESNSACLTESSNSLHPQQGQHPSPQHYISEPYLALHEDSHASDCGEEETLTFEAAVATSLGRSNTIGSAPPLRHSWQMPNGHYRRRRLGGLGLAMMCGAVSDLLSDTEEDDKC

Take “SNX-482: toxin from the tarantula Hysterocrates gigas, a 41 amino acid residue peptide with 3 disulfide linkages; putative R-type selective antagonist (GVDKAGCRYMFGGCSVNDDCCPRLGCHSLFSYCAWDLTFSD; disulfide (positions not given here); also: 3 disulfide linkages, pairings not given here; UniProt P56854 1-41, looked up)”: the “block of R-type calcium current” value in series [1] is “blocks”. Moreover, the “effect on K+ and Na+ currents, and L, P/Q and T-type calcium currents” value in series [2] was “no effect”. Moreover, the “block of N-type calcium current” value with N-type calcium current was 30-50%. Besides, the “effect on R-type current” value in series [3] is reported as “no significant effect”.
